Reference: paper PMC7589674

Molecular target: The-05 (variant of the HFt-MP-PASE construct bearing the Lys53Glu, Lys71Glu, Thr135Glu and Lys143Glu mutations) (human)
Assay: SEC + other: dynamic light scattering + other: negative-stain TEM; empty The-05; Superose 6 in PBS pH 7.4; DLS at 25 °C, 1 mg/mL in diluted PBS (1:2); TEM 0.1 mg/mL, 2% uranyl acetate; assembly of the subunits into the cage

stoichiometry N: 24
Substance: The-05 (variant of the HFt-MP-PASE construct bearing the Lys53Glu, Lys71Glu, Thr135Glu and Lys143Glu mutations) (designed binder)
